This is an account of results in patent US20250340654A1.

This test addresses Canine IL-31RA ECD-10His (canine). Put plainly: ELISA, IL-31RA coated at 1 ug/mL, biotinylated IL-31 titrated, HRP-streptavidin.

Canine IL-31RA ECD-10His (canine), sequence (chain, as listed by the source limits assumed): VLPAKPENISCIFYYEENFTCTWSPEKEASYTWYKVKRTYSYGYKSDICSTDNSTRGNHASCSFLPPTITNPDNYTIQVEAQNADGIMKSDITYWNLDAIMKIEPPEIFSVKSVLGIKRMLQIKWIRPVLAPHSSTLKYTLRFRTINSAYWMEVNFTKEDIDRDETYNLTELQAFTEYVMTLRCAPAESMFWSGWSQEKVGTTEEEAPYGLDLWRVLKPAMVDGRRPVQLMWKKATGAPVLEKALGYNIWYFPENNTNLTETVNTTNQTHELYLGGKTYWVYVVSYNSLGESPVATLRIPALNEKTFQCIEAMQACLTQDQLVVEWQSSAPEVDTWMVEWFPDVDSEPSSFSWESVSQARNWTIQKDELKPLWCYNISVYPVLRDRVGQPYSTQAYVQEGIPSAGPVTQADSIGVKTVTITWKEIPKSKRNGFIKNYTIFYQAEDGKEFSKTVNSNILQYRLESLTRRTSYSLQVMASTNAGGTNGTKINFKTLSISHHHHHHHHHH

By EC50 is commonly meant the concentration at which the effect is half-maximal. Lower therefore signals a more potent agent. biotinylated canine IL-31 (ligand) showed an EC50 of 0.55 ng/mL.
